Read-outs that look alike come from different tables or passages of the source.

Assay in all cases: flow cytometry on human CLDN18.1-HEK293 cells, antibody at 100 µg/mL
Background: In flow cytometry, cells or beads pass a laser one at a time.

The target in test [1] is human CLDN18.1 (human) (UniProt P56856).
For test [2] the target is unchanged. The source holds these as a separate data set.
The target is the same in test [3]. The source holds these as a separate data set.

Chain of human CLDN18.1 (human) (P56856 whole entry): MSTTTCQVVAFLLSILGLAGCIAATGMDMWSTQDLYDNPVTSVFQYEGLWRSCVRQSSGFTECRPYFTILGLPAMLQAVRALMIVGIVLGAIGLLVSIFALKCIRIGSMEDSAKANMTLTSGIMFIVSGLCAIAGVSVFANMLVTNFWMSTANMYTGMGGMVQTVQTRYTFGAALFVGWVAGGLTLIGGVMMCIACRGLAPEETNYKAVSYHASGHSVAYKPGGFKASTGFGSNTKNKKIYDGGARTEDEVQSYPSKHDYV

As for irrelevant control hIgG1 (antibody), the figures for the positive rate of cell binding with human CLDN18.1 (human) [1], in the test with human CLDN18.1 (human) [2] and in the test with human CLDN18.1 (human) [3] were 0.049%, 0.067% and 0.851%, respectively.

Source of the values: US20240092891A1.
